We go through 11 sequences from a protein production outcome set (Wang et al. 2014).

The nature of this data set: label from the status in PepcDB records.
“MNKKIFYITILLHLPNLLFSYSTKYDIEVKMSAFVMSLAIIVISSISIGNLVAKIGIPKVIGQITAGIILSPNAFGKIQIPLLFPLGITQIGENYLINEKIFAISTIASIILLFTAGLETDLKLFIKFLPRGGIIGITEVVGTFTSFVLMASIIFNVPLISPTSLFIGIIGTPTSAGIAASILSAKKKMSTSEGVTIISTSIIDDVLSMLMLTSVITISRSISDLDIASSIKAIVQNIVIWLCLTFSLIYISETLSRLLKKLNSVTLATVITLSLALTIASIFQNLGMSFVVGAYVFGLAMSKTDIVYVIQDKLTIFERFFIPIFFTSIGLMSDINEILSKEVLILGLAISAIAIITKSIFCFIPALFLGFNKLGALKIATGMVPRGEVSLIMANVALSSGFISQKIFGIIIIMVFLPTIIATPIINFLFKINKSGLKKELPIDQNTHICVSFEYDNLAKILIWDFKNELRKEGFFTQQIKNDSSQYINARKNNISFSIKREGSKITFECPNNHLIIIQDLFRETILNLEKITKEVETVSLRAKKLDYSINYDKILSNINLNKRIKKENIILELKSSNKADVIRELLSVINIEIDKERIFQDLMEREKLITTALKEGFAIPHLKTNLISKIHIAIGISHEGIDFNALDKNLSHVFILILCPAKDYVSYPRILASVVGKVDLYKKEILNAKTDKEIYNIIVS”: the protein production entry was “failed”.
For “MNKKILATAVLGTGALSTLFAHQAEASTTHTVRSGESLWSISHHYGITVSKLKSLNGLSSNLIFPNQVLKVSGSSNYSSRSNYGNSSSTYTVRAGDSLSSIASRYGTTYRHIMNLNGLNSFLIFPGQQLKVSGSVSSNSHSSYNSNSGGSSSTYTVRYGDSLSSIASRYGTTYQHIMRLNGLNNFFIYPGQKLRVSGSASSNTYSTRSAQSTYYSSPVFNHRNLYDWGQCTWHVFNRRAAIGKGISTYWWNANNWDNAAARDGYRIDGNPTVGSIAQSDAGYYGHVAFVERVNSNGSILVSEMNFSASPGILTYRTIPAYQVRNYKFIH”, the protein production entry is recorded as “failed”.
As for “MNKKKFENLPKWNNFALFNFLAKDKENSLEVMEASRGFAVPGIVATNYETAEEAANVVKELQTTAPVISVGLGGGGDWQNWRDVLHIARLAPNSHINQPIETAGLTNDLLPETYTNALVRPTGKVGIVKLSSGDEITAEEAVDYCLSANIPSIKFMSIEGTKYLDELVYLTKVAAEKGIYGIEPAGGIGAENILEITTAIKTTGIPFFMPHIFGKTIDKATGRTKPEEIEKIFAALEGK”, the entry is “failed”; as for “MNKLDGIPIPKTYGPLGNLPLLDKNRVSQSLWKIADEMGPIFQFKFADAIGVFVSSHELVKEVSEESRFDKNMGKGLLKVREFSGDGLFTSWTEEPNWRKAHNILLPSFSQKAMKGYHPMMQDIAVQLIQKWSRLNQDESIDVPDDMTRLTLDTIGLCGFNYRFNSFYREGQHPFIESMVRGLSEAMRQTKRFPLQDKLMIQTKRRFNSDVESMFSLVDRIIADRKQAESESGNDLLSLMLHAKDPETGEKLDDENIRYQIITFLIAGHETTSGLLSFAIYLLLKHPDKLKKAYEEADRVLTDPVPSYKQVQQLKYIRMILNESIRLWPTAPAFSLYAKEETVIGGKYLIPKGQSVTVLIPKLHRDQSVWGEDAEAFRPERFEQMDSIPAHAYKPFGNGQRACIGMQFALHEATLVLGMILQYFDLEDHANYQLKIKESLTLKPDGFTIRVRPRKKEAMTAMPGAQPEENGRQEERPSAPAAENTHGTPLLVLYGSNLGTAEEIAKELAEEAREQGFHSRTAELDQYAGAIPAEGAVIIVTASYNGNPPDCAKEFVNWLEHDQTDDLRGVKYAVFGCGNRSWASTYQRIPRLIDSVLEKKGAQRLHKLGEGDAGDDFEGQFESWKYDLWPLLRTEFSLAEPEPNQTETDRQALSVEFVNAPAASPLAKAYQVFTAKISANRELQCEKSGRSTRHIEISLPEGAAYQEGDHLGVLPQNSEVLIGRVFQRFGLNGNEQILISGRNQASHLPLERPVHVKDLFQHCVELQEPATRAQIRELAAHTVCPPHQRELEDLLKDDVYKDQVLNKRLTMLDLLEQYPACELPFARFLALLPPLKPRYYSISSSPQLNPRQTSITVSVVSGPALSGRGHYKGVASNYLAGLEPGDAISCFIREPQSGFRLPEDPETPVIMVGPGTGIAPYRGFLQARRIQRDAGVKLGEAHLYFGCRRPNEDFLYRDELEQAEKDGIVHLHTAFSRLEGRPKTYVQDLLREDAALLIHLLNEGGRLYVCGDGSRMAPAVEQALCEAYRIVQGASREESQSWLSALLEEGRYAKDVWDGGVSQHNVKADCIART”, “failed”.
Consider “MNKLNIKEYKTKAGEVRYILRGAYIGTDVLTGKQIKTDIRGRTKTGVKNELERLKNNFKKNGNTKGKESLETFEEVAESFFELYKLQRKIGSIDQMRSNLDNYTLPAFGNKRISKITTAQIQQQVIKWGKSAAAPLNGRQKRTTGQAKRYKLQFNIINRIFQHALSLGIIENNPCQSVIVPQVKVEQAKKEIKFYKKSELAKLFNYLESLKSGQWSNEYFKALLRLLVASGLRIGEAMALSWSDINFQNQTVSVSKTTVRRFQIQDTPKSNKSNRIISIDDKAIYVLKSWYFFQKKHFMKLGNPQQNLVFPKIEGGVMDYHNLIYKLNNIIKNAELPLLSFHGFRRSHASLCLNAEMSYKVIQERLGHSKLQLTMDLYSHLEPEKKNKELELFTKYANF”, for which the protein production result is on record as “failed”.
For “MNKQFIILYFNIFLVFLGIGLVVPVLPVYLKDLGLKGSDLGILVAVFALAQMIISPFGGTLADKLGKKLIICIGLGLFAISEFLFAASHTFSLLIVSRILGGFSAGMVMPGVTGMIADISVGRDKAKNFGYMSAIINSGFILGPGMGGFLAEFSHRLPFYVAGFSGCVALILSIALIKNPKNSTQDGFTQYQPELLSKINWKVFLTPIILTLVLAFGLSAFETLFPLYTADKAHYSPLDISFAITGGGIAGAIFQVFFFDKFMKHFKELTFITYALLYSAIILLALTFVHSYWSIMIISFIVFIGFDMIRPAITNYFSNIAGNRQGFAGGLNSTFTSMGNFIGPLVAGTLYDINFEFPLYMSVLVMVLGMFVIFIEKMIRSRFSNI”, the protein production entry is given as “failed”.
Take “MNKQVIVRSACLALFVGLAGGCATGPGGGSIYVPVGSDDRRSAPEPPRTNIPDEQDEQVWRKSEQPTVTEPDSPSTRAPSYSESGDQLPAAALTLVRDADQRLRQGDSAGAIARLERAQRIAPRSSEVYFKLAEAYVAGDNLGAAEQFTLKGLSLAGNDERMQRSGWLLLADIRRARGNVAGADQAEARAAAL”: the protein production entry is recorded as “failed”.
Regarding “MNKVITDLDKALSALKDGDTILVGGFGLCGIPEYAIDYIYKKGIKDLIVVSNNCGVDDFGLGILLEKKQIKKIIASYVGENKIFESQMLNGEIEVVLTPQGTLAENLHAGGAGIPAYYTPTGVGTLIAQGKESREFNGKEYILERAITGDYGLIKAYKSDTLGNLVFRKTARNFNPLCAMAAKICVAEVEEIVPAGELDPDEIHLPGIYVQHIYKGEKFEKRIEKITTRSTK”, the protein production result is listed as “failed”.
As for “MNKYLSFIFASVLTLTGVQLSKASNPSDSLAIVSAKWERTSSLQGIQLKQASIEGLFGGKQSISILTIGRAEGYTAFIATTDSLTTTSQLAEQSRSSAAINGSYFSIKEGFSTCYLRKNEAVIDTTTTEERHLRVNGAVHMVDNNIRIIPWNDENEKKGFPLDGDILASGPLLMQDGKTCDFTTIDREFSETRHPRSAIALTKEGDIMLVAVDGRAEGHADGMSIAELAYLLRILKAHCALNLDGGGSTTLWVNGQVVNHPSDNKKFDNKGERKVHNIIAVRRLTNP”, the entry is “failed”.
On to “MNLAKGLDVLKISSNVLGEDKVMYIPAIYTEDDATLIDTGLPGQGDLIIDALNKSNTSFDRLKNIIITHHDIDHIGNINYLREKSKNNIKVYAYKSEVSYITGEETPFKLYMLEQMVDKIDDKMLSMLNVMGLGFKSSYTKVDVSLDNHEKLNLGEEIEVIHTGGHTRGHICLYLKESKVLIAGDLLQVENGELKPVDVMHSNKQELKDAIKNISNYDIETIVFSHGGLYQRNIIETLKNLIIE”, for which the protein production entry was “failed”.
In the case of “MNLAVTVLEIVAPVFLLAAVGFGWVRMGFEYRLQFVTRLGTMLAVPCLIFVALMKTEIPGGDLSRFTLASALAILALTVVFGLIVRFSGLDRRTYLPPLLFGNTGNLGLPLCMFAFGIEGLSYAVVFFSLSALWSFSYGIHVVAGQGSLSKVVREPMVWATLLGALFLSQDWQTPRFLTNALELIGQMAVPLMLITLGVAMARLSIRRIGQALGLSLLKLAICFPVGWLVAQGFGLSGPALGVLVVQMSVPAAVSAYLLAERFGADADAVAGMVMVSTLLAVGALPLVLAAVL”, the protein production result is recorded as “failed”.
